Assay results as given in patent US20190022198A1, “Individualized Immunomodulation Therapy for Neurodegenerative Disorders, CNS Injury and Age-Related Dementia” (Yeda Research and Development Co. Ltd., priority 2012, published 2019).
“Also recorded” adds a separate entry of the source.

How the values were obtained:
CP epithelial cells = assay: Primary culture of choroid plexus cells treated with cytokines, mRNA by real-time qPCR; type: cell-based, mouse; conditions: for gene expression levels of trafficking molecules (ICAM-1, VCAM-1, CCL5, CXCL9, CXCL10, MHC-II): cultured CP cells from WT mice; for gene expression levels of trafficking molecules (ICAM-1, VCAM-1, CCL5, CXCL9, CXCL10, MHC-II) / expression of IFN-γ-receptor (IFN-γR) mRNA: IL-6 10 ng/ml; for gene expression levels of trafficking molecules (ICAM-1, VCAM-1, CCL5, CXCL9, CXCL10, MHC-II) / expression of the chemokine CCL20: IL-17 100 ng/ml; for expression of trafficking-related genes, escalating dosing of the cytokines: escalating dosing (data not shown); for ccl11 mRNA levels (CCL11 expression): cultured CP epithelial cells from young (3 months) mice, 24 hours after addition; for expression of the chemokine CCL20 / expression of IFN-γ-receptor (IFN-γR) mRNA: CP epithelial cells; for expression of IFN-γ-receptor (IFN-γR) mRNA: TNF-α 100 ng/ml, IL-1β 100 ng/ml
Protocol: Mice were perfused from the left ventricle of the heart with PBS, and their CPs were removed under a dissecting microscope (Stemi DV4; Zeiss) in PBS into tubes containing 0.25% trypsin, and kept on ice. The tubes were shaken for 20 minutes at 37° C. and the tissue was dissociated by pipetting. The cell suspension was washed in culture medium for epithelial cells (DMEM/HAM's F12 (Invitrogen Corp)) supplemented with 10% FCS (Sigma-Aldrich), 1 mM 1-glutamine, 1 mM sodium pyruvate, 100 U/ml penicillin, […] streptomycin, 5 μg/ml Insulin, 20 μM Ara-C, 5 ng/ml sodium selenite, 10 ng/ml EGF, and cultured (˜250,000 cells/well) at 37° C., 5% CO2 in 24-well plates (Corning Incorporated) coated with poly-L-lysine (PLL; Sigma-Aldrich). After 24 hours, the medium was changed, and the cells were either left untreated, or treated with the indicated cytokines (all purchased from PeproTech): IFN-γ, IL-4, IL-10, IL-17A, GM-CSF, IL-6, IL-1β or TNF-α or their combinations for 24 h. Cell viability was quantified by Trypan blue staining after detachment of the cells with 0.25% trypsin for 10 minutes at 37° C. Neutralizing antibodies to TNF-R1 or TNF-R2 ([…], BioLegend) were added 1 h prior to the addition of TNF-α (100 ng/ml). RNA was isolated using the ZR RNA microprep kit (Zymo Research) according to the manufacturer's protocol.
Total RNA of the hippocampus was extracted with TRI reagent (MRC, Cincinnati, Ohio) and was purified from the lysates and spinal cord using the RNeasy kit (Qiagen, Hilden, Germany). Total RNA of the choroid plexus was extracted using the RNA MicroPrep kit (Zymo Research). mRNA (1 μg) was converted to cDNA using High Capacity cDNA Reverse Transcription Kit (Applied Biosystems). The expression of specific mRNAs was assayed using fluorescence based real-time quantitative PCR (qPCR). qPCR reactions were performed using Power SYBR Green PCR Master Mix (Applied Biosystems). Quantification reactions were performed in triplicates for each sample using the standard curve method. Glyceraldehyde 3-phosphate dehydrogenase (GAPDH), Peptidylprolyl isomerase A (PPIA), and hypoxanthine guanine phosphoribosyltransferase (HPRT) were chosen as reference genes according to their stability in the target tissue. The amplification cycles were 95° C. for 5 sec, 60° C. for 20 sec, and 72° C. for 15 sec. At the end of the assay, a melting curve was constructed to evaluate the specificity of the reaction. For some genes, the cDNA was pre-amplified in 14 PCR cycles with non-random PCR primers, thus increasing the sensitivity of the subsequent real-time PCR analysis (PreAmp Master Mix Kit, Applied Biosystems). For these genes, expression was determined using TaqMan Real-Time PCR, according to manufacturer's instructions (Applied Biosystems). All quantitative real-time PCR reactions were performed and analyzed using the 7500 Real-Time PCR System (Applied Biosystems). The following TaqMan probes were used: Mm02342430_g1 (ppia), Mm00446968_m1 (hprt), Mm00445260_m1 (il-4), Mm01168134_m1 (ifn-γ), Mm00441238_m1 (ccl11), Mm00475988_m1 (arg-1). In addition, the following primers were used: […]

cultured CP cells = assay: Immunocytochemistry of cultured CP cells treated with cytokines; type: cell-based, mouse
Protocol: For whole mount staining of the choroid plexus, isolated tissues were fixed with 2.5% paraformaldehyde (PFA) for several hours, and subsequently transferred to PBS containing 0.05% sodium azide. Prior to staining, the dissected tissues were washed and blocked (20% horse serum, 0.3% Triton X-100, and PBS) for 1 h at room temperature with shaking. Whole mount staining with primary (in PBS containing 2% horse serum and 0.3% Triton X-100) and secondary antibodies (in PBS), was performed for 1h at room temperature, with shaking. Each step was followed by three washes in PBS. The tissues were mounted onto slides, using Immu-mount (9990402, from Thermo), and sealed with cover-slips. For staining of sectioned brains, two different tissue preparation protocols (paraffin embedded and microtomed frozen sections) were applied, as previously described (Ziv Y et al (2006b)). For immunocytochemistry, CP cells were isolated as described above and were grown on PLL coated cover slips for 7 days, replacing the medium every 3 days. Cytokines were added for the last 3 days of culture. Following 7 days of culture, the wells were washed with PBS and the cells were fixed either with 2.5% paraformaldehyde for 30 min or methanol-acetone (1:1) for 10 min at −20° C., following by 2 washing steps with PBS. For CCL11 staining, cells were treated with Brefeldin-A 2 hours prior to fixation in order to arrest protein secretion. The cover slips of the cultured CP cells were incubated with the indicated antibodies and mounted with Glycerol Vinyl Alcohol (GVA) mounting solution (Invitrogen). The following primary antibodies were used: rat anti-CD3 (Abcam); rat anti-ICAM-1 (1:100; Abcam), chicken anti-vimentin (1:500, Millipore), rabbit anti-Iba1 (1:300; Wako), goat anti-IL-10 (1:20; R&D), mouse anti-MHC-II (Abcam); mouse anti-Arginase-1 (BD Biosciences); mouse anti-Cytokeratin (Covance); rat anti-CCL11 (R&D Systems); rabbit anti-ZO-1 (Invitrogen); and rabbit anti-Claudin-1 (Invitrogen). Secondary antibodies included: Cy2/Cy3-conjugated donkey anti-rat, mouse or rabbit antibody and Cy3 conjugated donkey anti-mouse, goat, rat, chicken or rabbit (1:200; all from Jackson Immuno Research). The slides were exposed to Hoechst stain (1:2000; Invitrogen) for 1 min. Two negative controls were routinely used in immunostaining procedures, staining with isotype control antibody followed by secondary antibody, and staining with secondary antibody alone. For morphological quantification, average cross-sectional area of epithelial cells was measured following Nissl staining. Cell borders (20-25 cells per picture) were marked and the area was quantified using Image-Pro Plus software in a blinded fashion.

Foxp3-DTR mice = assay: Foxp3+ Treg depletion by diphtheria toxin in DEREG (Foxp3-DTR) mice; type: in vivo, mouse
[1] = 24 hours, IFN-γ 100 ng/ml, IL-4 10 ng/ml

## IL-4: Th2-derived cytokine, purchased from PeproTech, added to cultured CP cells
CP epithelial cells; [1]
  gene expression levels of trafficking molecules (ICAM-1, VCAM-1, CCL5, CXCL9, CXCL10, MHC-II): no effect on trafficking molecules
CP epithelial cells; cultured CP cells
  expression of trafficking-related genes, escalating dosing of the cytokines: None of the tested cytokines, other than IFN-γ, had any effect
CP epithelial cells; IL-4 10 ng/ml, IFN-γ 100 ng/ml
  ccl11 mRNA levels (CCL11 expression): expressed high levels of CCL11
CP epithelial cells; cultured CP epithelial cells, IL-4 10 ng/ml, 24 h
  arginase-1 (Arg1) expression: upregulated arginase-1; also recorded: dramatic effect on the upregulation of arginase-1
Cultured CP cells; CP epithelial cell cultures in response to IL-4 (data not shown)
  epithelial tight junctions (ZO-1 staining): dysregulated
Cultured CP cells; CP epithelium, IL-4, following Brefeldin-A treatment (data not shown)
  CCL11 immunoreactivity: produced CCL11
Cultured CP cells; IL-4 (10 ng/ml) treated CP epithelial cells
  Arg1 immunostaining: higher relative to untreated cells

## diphtheria toxin [DTX]
Foxp3-DTR mice; DTX 8 ng/g i.p. per day for 4 days, DTR+ mice
  Foxp3+ T cells in the spleen, the CP and the CSF: depleted
Foxp3-DTR mice; following Foxp3+ T cells depletion by DTX
  mRNA of ICAM-1, CXCL9, CXCL10, CXCL11, MCP-1, MCSF, BDNF and IGF-1 in the CP: significantly upregulated

B1: IFN-γ: Th1-derived cytokine, purchased from PeproTech, added to cultured CP cells (protein, UniProt P01580 23-155, looked up)
Interferon gamma: HGTVIESLESLNNYFNSSGIDVEEKSLFLDIWRNWQKDGDMKILQSQIISFYLRLFEVLKDNQAISNNISVIESHLITTFFSNSKAKKDAFMSIAKFEVNNPQVQRQAFNELIRVVHQLLPESSLRKRKRSRC
CP epithelial cells; CP epithelial cells from 70 day old WT and mSOD1 mice, IFN-γ 100 ng/ml, 24h
  expression of trafficking molecules (ICAM-1, VCAM-1, CCL5, CXCL10) mRNA: elevated the expression of trafficking molecules by both WT and mSOD1 CP cultures to a similar degree
CP epithelial cells; IFN-γ 100 ng/ml, 24 h
  expression of the chemokine CCL20: not
CP epithelial cells; IFN-γ 100 ng/ml combined with TNF-α 100 ng/ml, 24 hours, most of the tested genes
  expression of trafficking molecules, IFN-γ combined with TNF-α: strong synergistic effect
CP epithelial cells; IFN-γ (100 ng/ml) added together with IL-4, young CP epithelial cells, 24 hours
  effect of IL-4 on CCL11 production: reversed the effect of IL-4 on CCL11 production
CP epithelial cells; [1]
  gene expression levels of trafficking molecules (ICAM-1, VCAM-1, CCL5, CXCL9, CXCL10, MHC-II): induced the upregulation of a wide array of trafficking molecules
CP epithelial cells; cultured CP cells, IFN-γ 100 ng/ml, 24 h
  expression of TNF-R1 mRNA: elevated the expression of TNF-R1
CP epithelial cells; cultured CP cells, IFN-γ 100 ng/ml, 24 hours
  expression of chemokines CCL2, Fractalkine (CX3CL1) and M-CSF: upregulated
CP epithelial cells; cultured CP cells
  expression of trafficking-related genes, escalating dosing of the cytokines: activated the CP in a dose dependent manner
CP epithelial cells; cultured CP epithelial cells from old (22 months) mice, IFN-γ 100 ng/ml, 24 hours
  basal CCL11 expression: decreased basal CCL11 expression
CP epithelial cells; IL-4 10 ng/ml, IFN-γ 100 ng/ml
  ccl11 mRNA levels (CCL11 expression): had no effect on CCL11 expression
Cultured CP cells; 3 days after addition of IFN-γ (100 ng/ml)
  ICAM-1 and VCAM-1 immunostaining on CP epithelial cells: elevated
Cultured CP cells; co-incubation of IFN-γ with IL-4, following Brefeldin-A treatment (data not shown)
  IL-4 induced CCL11 immunoreactivity: reversed this induction

B2: GM-CSF: cytokine purchased from PeproTech (protein, UniProt P01587 18-141, looked up)
Granulocyte-macrophage …: APTRSPITVTRPWKHVEAIKEALNLLDDMPVTLNEEVEVVSNEFSFKKLTCVQTRLKIFEQGLRGNFTKLKGALNMTASYYQTYCPPTPETDCETQVTTYADFIDSLKTFLTDIPFECKKPGQK
CP epithelial cells; cultured CP cells
  expression of trafficking-related genes, escalating dosing of the cytokines: None of the tested cytokines, other than IFN-γ, had any effect

B3: IL-6: pro-inflammatory cytokine, purchased from PeproTech (protein, UniProt P08505 25-211, looked up)
Interleukin-6: FPTSQVRRGDFTEDTTPNRPVYTTSQVGGLITHVLWEIVEMRKELCNGNSDCMNNDDALAENNLKLPEIQRNDGCYQTGYNQEICLLKISSGLLEYHSYLEYMKNNLKDNKKDKARVLQRDTETLIHIFNQEVKDLHKIVLPTPISNALLTDKLESQKEWLRTKTIQFILKSLEEFLKVTLRSTRQT
CP epithelial cells; 24 h
  expression of IFN-γ-receptor (IFN-γR) mRNA: not
CP epithelial cells; [1]
  gene expression levels of trafficking molecules (ICAM-1, VCAM-1, CCL5, CXCL9, CXCL10, MHC-II): neither IL-17, nor its induced cytokine IL-6, had any effect
CP epithelial cells; cultured CP cells
  expression of trafficking-related genes, escalating dosing of the cytokines: None of the tested cytokines, other than IFN-γ, had any effect

B4: IL-1β: pro-inflammatory cytokine, purchased from PeproTech (protein, UniProt P10749 118-269, looked up)
Interleukin-1 beta: VPIRQLHYRLRDEQQKSLVLSDPYELKALHLNGQNINQQVIFSMSFVQGEPSNDKIPVALGLKGKNLYLSCVMKDGTPTLQLESVDPKQYPKKKMEKRFVFNKIEVKSKVEFESAEFPNWYISTSQAEHKPVFLGNNSGQDIIDFTMESVSS
CP epithelial cells; 24 h
  expression of IFN-γ-receptor (IFN-γR) mRNA: elevated the expression of IFN-γ-receptor

B5: IL-17: Th17-derived cytokine, purchased from PeproTech (protein, UniProt Q62386 26-158, looked up)
Interleukin-17A: AAIIPQSSACPNTEAKDFLQNVKVNLKVFNSLGAKVSSRRPSDYLNRSTSPWTLHRNEDPDRYPSVIWEAQCRHQRCVNAEGKLDHHMNSVLIQQEILVLKREPESCPFTFRVEKMLVGVGCTCVASIVRQAA
CP epithelial cells; IFN-γ 100 ng/ml, 24 h
  expression of the chemokine CCL20: elevated the expression of the chemokine CCL20
CP epithelial cells; [1]
  gene expression levels of trafficking molecules (ICAM-1, VCAM-1, CCL5, CXCL9, CXCL10, MHC-II): failed to activate the choroid plexus for trafficking

B6: IL-10: Treg-derived cytokine, purchased from PeproTech (protein, UniProt P18893 19-178, looked up)
Interleukin-10: SRGQYSREDNNCTHFPVGQSHMLLELRTAFSQVKTFFQTKDQLDNILLTDSLMQDFKGYLGCQALSEMIQFYLVEVMPQAEKHGPEIKEHLNSLGEKLKTLRMRLRRCHRFLPCENKSKAVEQVKSDFNKLQDQGVYKAMNEFDIFINCIEAYMMIKMKS
CP epithelial cells; cultured CP cells
  expression of trafficking-related genes, escalating dosing of the cytokines: None of the tested cytokines, other than IFN-γ, had any effect
